Experimental data: patent publication US20070264679A1, “Method for analyzing the activity of lipoxygenase using a water-soluble substrate” (Chungnam National University Industry Collaboration …, priority 2006, published 2007)

Columns and labels:
[1] = biological target: T1, soybean LOX-1 (Glycine max, UniProt P08170); test: Kinetics of oxygenation of docosahexaenoic acid derivatives by soybean LOX-1; format: biochemical; conditions: soybean LOX-1 2.5 units/ml, 50 mM borax buffer pH 9.0, 25° C.
T1 construct: purchased Sigma-Aldrich Corp (St. Louis, Mo., USA) lipoxidase Type I-B
T1 sequence (P08170 1-839): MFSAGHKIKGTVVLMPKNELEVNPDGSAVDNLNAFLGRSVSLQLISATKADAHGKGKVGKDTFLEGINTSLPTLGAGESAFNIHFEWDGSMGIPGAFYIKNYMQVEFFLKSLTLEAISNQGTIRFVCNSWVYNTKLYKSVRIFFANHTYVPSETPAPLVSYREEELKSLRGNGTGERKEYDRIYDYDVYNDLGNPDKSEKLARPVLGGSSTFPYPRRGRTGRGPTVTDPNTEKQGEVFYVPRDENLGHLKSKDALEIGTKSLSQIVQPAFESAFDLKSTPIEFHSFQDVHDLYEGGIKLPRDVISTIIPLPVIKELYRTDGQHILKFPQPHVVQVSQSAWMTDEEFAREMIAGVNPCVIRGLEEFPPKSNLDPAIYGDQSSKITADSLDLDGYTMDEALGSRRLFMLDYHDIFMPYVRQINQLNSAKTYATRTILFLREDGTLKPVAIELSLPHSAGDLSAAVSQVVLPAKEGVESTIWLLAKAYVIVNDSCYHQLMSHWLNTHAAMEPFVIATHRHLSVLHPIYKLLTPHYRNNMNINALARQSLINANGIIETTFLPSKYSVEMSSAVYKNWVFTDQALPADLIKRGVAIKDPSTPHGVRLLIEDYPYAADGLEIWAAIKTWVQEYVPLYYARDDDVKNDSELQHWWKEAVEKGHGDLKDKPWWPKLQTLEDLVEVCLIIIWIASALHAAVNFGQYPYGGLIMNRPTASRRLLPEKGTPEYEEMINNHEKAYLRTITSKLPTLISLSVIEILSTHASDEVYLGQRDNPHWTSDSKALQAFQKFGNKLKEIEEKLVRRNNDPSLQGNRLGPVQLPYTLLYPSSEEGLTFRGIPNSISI
Method: (§1) Soybean LOX-1 (2.5 units/ml) was incubated with docosahexaenoyl-lysoPC, didocosahexaenoyl-lysoPC or docosahexaenoic acid of various concentrations in 500 μl of 50 mM borax buffer (pH 9.0) at 25° C. Values were expressed as means ±S.D. of results from at least three independent experiments.

[2] = biological target: T1, soybean LOX-1; test: Kinetics of oxygenation of arachidonic acid or arachidonoyl-lysophospholipids by soybean LOX-1; format: biochemical; conditions: soybean LOX-1 2.5 units/ml, 50 mM borax buffer pH 9.0; unit = one nanomole conjugated diene per min
Method: (§2) Activities of various LOXs were monitored by measuring the increase in absorbance at 234 nm due to the formation of hydroperoxide (ε234=25,000 M^−1 cm^−1) at 25° C. as described before (Smith et al, J. Biol. Chem. 247 (1972) 1038-1047). One unit is defined as the amount of LOXs that can produce one nanomole of conjugated diene per min. The reaction mixture (500 μl) included reticulocyte LOX (2 units/ml) in 50 mM phosphate buffer (pH 7.4), porcine leukocyte LOX (1 unit/ml) in 100 mM phosphate buffer (pH 7.5) containing 5 mM EDTA and 0.03% Tween 20, or soybean LOX-1 (2.5 units/ml) in 50 mM borax buffer (pH 9.0) at 25° C. The reactions were started by including each substrate (100 μM) into the above reaction mixture.
(§3) Reticulocyte LOX (2 units/ml), leukocyte LOX (1 units/ml) or soybean LOX-1 (2.5 units/ml) was incubated with each arachidonoyl derivative substrate of various concentrations as described above. The values of kinetic parameters were obtained according to Lineweaver Burke plot analyses as described before (Barroso et al, J. Chromatogr. B. Analyt. Technol. Biomed. Life. Sci. 814 (2005) 21-28).

[3] = biological target: T2, Leukocyte 12-lipoxygenase (leukocyte LOX) (Sus scrofa, UniProt P16469); test: Kinetics of oxygenation of arachidonic acid or arachidonoyl-lysophospholipids by leukocyte LOX; format: biochemical, porcine; conditions: leukocyte LOX 1 unit/ml, 100 mM phosphate buffer pH 7.5, 5 mM EDTA, 0.03% Tween 20
T2 construct: purchased Cayman Chemical Co. (Ann Arbor, Mich., USA)
T2 sequence (P16469 1-663): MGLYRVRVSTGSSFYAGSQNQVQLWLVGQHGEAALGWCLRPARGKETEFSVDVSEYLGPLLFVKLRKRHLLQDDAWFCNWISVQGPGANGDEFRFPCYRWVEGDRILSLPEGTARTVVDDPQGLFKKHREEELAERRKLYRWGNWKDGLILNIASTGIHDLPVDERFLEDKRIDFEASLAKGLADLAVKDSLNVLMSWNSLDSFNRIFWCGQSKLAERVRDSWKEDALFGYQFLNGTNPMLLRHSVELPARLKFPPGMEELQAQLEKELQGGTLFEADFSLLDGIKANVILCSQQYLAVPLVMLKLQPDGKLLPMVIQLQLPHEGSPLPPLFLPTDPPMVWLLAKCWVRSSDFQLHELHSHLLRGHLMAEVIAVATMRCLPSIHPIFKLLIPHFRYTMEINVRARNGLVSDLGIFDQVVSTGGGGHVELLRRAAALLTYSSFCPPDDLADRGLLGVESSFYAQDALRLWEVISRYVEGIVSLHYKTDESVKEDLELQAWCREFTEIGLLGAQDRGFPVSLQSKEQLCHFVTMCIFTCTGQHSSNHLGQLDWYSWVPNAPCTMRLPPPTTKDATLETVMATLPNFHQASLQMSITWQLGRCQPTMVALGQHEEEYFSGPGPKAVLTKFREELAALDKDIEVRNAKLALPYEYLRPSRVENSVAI
Method: as §2, §3

[4] = biological target: T3, Reticulocyte LOX (Oryctolagus cuniculus, UniProt P12530); test: Kinetics of oxygenation of linoleoylated substrates by reticulocyte LOX; format: biochemical, Rabbit; conditions: reticulocyte LOX 8.2 units/ml, 50 mM phosphate buffer pH 7.4, 25° C.; for Km: substrate 3-100 μM
T3 construct: purchased Biomol Inc. (Plymouth Meeting, Pa., USA)
T3 sequence (P12530 1-663): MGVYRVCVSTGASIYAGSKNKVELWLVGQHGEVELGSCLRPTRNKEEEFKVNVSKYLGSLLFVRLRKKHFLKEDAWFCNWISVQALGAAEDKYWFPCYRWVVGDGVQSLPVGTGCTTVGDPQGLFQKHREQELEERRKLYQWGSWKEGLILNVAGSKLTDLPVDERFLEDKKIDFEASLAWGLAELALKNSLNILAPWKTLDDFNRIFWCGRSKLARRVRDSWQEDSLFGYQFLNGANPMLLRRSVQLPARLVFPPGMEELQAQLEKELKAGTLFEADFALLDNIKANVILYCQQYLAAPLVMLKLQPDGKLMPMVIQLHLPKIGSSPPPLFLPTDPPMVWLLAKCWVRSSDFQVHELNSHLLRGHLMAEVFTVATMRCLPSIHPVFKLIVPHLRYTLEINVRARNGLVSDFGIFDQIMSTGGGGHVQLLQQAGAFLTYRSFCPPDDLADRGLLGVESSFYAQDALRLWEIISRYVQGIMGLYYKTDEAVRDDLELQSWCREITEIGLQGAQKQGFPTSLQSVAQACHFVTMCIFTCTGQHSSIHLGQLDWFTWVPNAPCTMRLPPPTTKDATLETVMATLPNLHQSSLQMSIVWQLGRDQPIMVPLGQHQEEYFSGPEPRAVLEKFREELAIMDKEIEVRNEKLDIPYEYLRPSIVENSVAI
Excerpt: (§4) Data were expressed as means ±S.D. of results from at least three independent experiments.

[5] = biological target: T4, Porcine leukocyte LOX (Sus scrofa, UniProt P16469); test: Kinetics of oxygenation of linoleoylated substrates by leukocyte LOX; format: biochemical; conditions: porcine leukocyte LOX 1.5 units/ml, 100 mM phosphate buffer pH 7.5, 5 mM EDTA
T4 construct: purchased Cayman Chemical Co. (Ann Arbor, Mich., USA)
T4 sequence (P16469 1-663): T2 sequence (P16469 1-663)
Excerpt: as §4

[6] = substrate: CCCCC/C=C\C/C=C\C/C=C\C/C=C\CCCC(=O)O; test: Kinetics of oxygenation of arachidonic acid or arachidonoyl-lysophospholipids by soybean LOX-1; format: biochemical; conditions: other: soybean LOX-1 2.5 units/ml, 50 mM borax buffer pH 9.0, 25° C.
Method: as §2, §3

[7] = substrate: CC/C=C\C/C=C\C/C=C\C/C=C\C/C=C\C/C=C\CCC(=O)O; test: Kinetics of oxygenation of docosahexaenoic acid derivatives by soybean LOX-1; format: biochemical; conditions: other: soybean LOX-1 2.5 units/ml, 50 mM borax buffer pH 9.0, 25° C.
Method: as §1

[8] = substrate: CCCCC/C=C\C/C=C\C/C=C\C/C=C\CCCC(=O)O; test: Kinetics of oxygenation of arachidonic acid or arachidonoyl-lysophospholipids by leukocyte LOX; format: biochemical, porcine; conditions: other: leukocyte LOX 1 unit/ml, 100 mM phosphate buffer pH 7.5, 5 mM EDTA, 0.03% Tween 20, 25° C.
Method: as §2, §3

[9] = substrate: CC/C=C\C/C=C\C/C=C\C/C=C\C/C=C\C/C=C\CCC(=O)O; test: Kinetics of oxygenation of docosahexaenoyl-lysoPC or docosahexaenoic acid by leukocyte LOX; format: biochemical; conditions: other: porcine leukocyte LOX 2 units/ml, 100 mM phosphate buffer pH 7.4, 5 mM EDTA, 0.03% Tween 20, 25° C.
Method: Porcine leukocyte LOX (2 units/ml) was incubated with each substrate docosahexaenoyl-lysoPC or docosahexaenoic acid of various concentrations in 500 μl of 100 mM phosphate buffer (pH 7.4) containing 5 mM EDTA and 0.03% Tween 20 at 25° C.

“didocosahexaenenoyl phosphatidylcholine [Didocosahexaenoyl-PC]” was tested, and the Km [1] was 1070 ± 184 µM and the Vm [1] was 7.8 ± 0.3 units/μg.

`CCCCC/C=C\C/C=C\C/C=C\C/C=C\CCCC(=O)O` [Arachidonic acid, arachidonic acid] gave a Vm [2] of 92.2 units/μg and a Vm [3] of 63.2 units/mg.

`CCCCC/C=C\C/C=C\CCCCCCCC(=O)OC[C@H](COP(=O)(O)O)OC(=O)CCCCCCC/C=C\C/C=C\CCCCC` [Dilinoleoyl-PA] was tested, and the Vm [4] was 1029 ± 22 units/mg and the Km [4] was 90 ± 7.3 µM.

With `CCCCC/C=C\C/C=C\CCCCCCCC(=O)OCC(O)COP(=O)(O)O` (stereo not drawn) [Linoleoyl-lysoPA] the Vm [4] was 443 ± 9 units/mg, the Km [4] was 8.3 ± 0.6 µM and the Vm ([5]; 0.03% Tween 20) was 30.7 ± 0.78 units/mg. The Km ([5]; substrate 3-100 μM, 0.03% Tween 20, 25° C.) was 35.5 ± 3.77 µM.

B1: soybean LOX-1 (Glycine max) (protein)
chain: T1 sequence (P08170 1-839)
notes: purchased Sigma-Aldrich Corp (St. Louis, Mo., USA) lipoxidase Type I-B
B1 showed a Km [6] of 12.4 µM, a Vmax [6] of 92200 nmol/min/mg and a Vmax/Km [6] of 7.4e+06 µL/min/mg. The Km [7] was 16.8 ± 1.4 µM and the Vmax [7] was 178000 nmol/min/mg.

B2: Leukocyte 12-lipoxygenase (leukocyte LOX) (Sus scrofa) (protein)
chain: T2 sequence (P16469 1-663)
notes: purchased Cayman Chemical Co. (Ann Arbor, Mich., USA)
With B2 the Km [8] was 7.7 µM, the Vmax [8] was 63.2 ± 11.9 units/mg and the Vmax/Km [8] was 8.2 ± 1.5 units/mg/μM.

B3: Porcine leukocyte LOX (Sus scrofa) (protein)
chain: T2 sequence (P16469 1-663)
notes: as for B2
For B3, the Km [9] was 17.6 ± 1.7 µM, the Vmax [9] was 35.9 µmol/min/mg and the Vmax/Km [9] was 2.1e+06 µL/min/mg.
